Laboratory results published in patent US20140086935A1 (Bayer, published 2014).
Substitutions are numbered along the chain they refer to. Read-outs that look alike come from different tables or passages of the source.

Tests used:
rat TIMP-1 [1] = biological target: T1, rat TIMP-1 (rat, UniProt P30120 24-217); assay: SPR (BIAcore), TIMP-1 coupled to chip, monovalent Fab
Experimental: (§1) For affinity determination, monomeric fractions of affinity and SEC purified Fab fragments or purified IgG1 molecules were used. All experiments were conducted in HBS buffer at a flow rate of 20 μl/min at 25° C. on a BIAcore™ instrument. Antigens in 100 mM sodium acetate pH 5.0 were coupled to a CM 5 sensor chip using standard EDC-NHS coupling chemistry. […] All sensograms were fitted globally using BIA evaluation software. For monovalent Fab fragments a monovalent fit (Langmuir binding) and for IgGs a bivalent fit was applied.

rat TIMP-1 [2] = biological target: T1, rat TIMP-1; assay: cell-based or functional assay
rat TIMP-1 [3] = biological target: T1, rat TIMP-1; assay: cell-based or functional assay; remark: listed apart in the source
rat TIMP-1 [4] = biological target: T1, rat TIMP-1; assay: cell-based or functional assay; remark: listed apart in the source
rat TIMP-1 [5] = biological target: T1, rat TIMP-1; assay: SPR (BIAcore), TIMP-1 coupled to chip, monovalent Fab; remark: listed apart in the source
rat TIMP-1 [6] = biological target: T1, rat TIMP-1; assay: SPR (BIAcore), rat TIMP-1 on chip, monovalent Fab
Experimental: as §1

human TIMP-1 [7] = biological target: T2, human TIMP-1 (human, UniProt P01033 24-207); assay: SPR (BIAcore), TIMP-1 coupled to chip, monovalent Fab
T2 construct: Purified protein, coupled to the BIAcore chip or in solution in the protease assay
Experimental: as §1

rat TIMP-1 [8] = biological target: T1, rat TIMP-1; assay: cell-based or functional assay; remark: listed apart in the source
human TIMP-1 [9] = biological target: T2, human TIMP-1; assay: cell-based or functional assay
human TIMP-1 [10] = biological target: T2, human TIMP-1; assay: SPR (BIAcore), human TIMP-1 on chip, IgG1, bivalent fit (avidity)
Experimental: as §1

rat TIMP-1 [11] = biological target: T1, rat TIMP-1; assay: cell-based or functional assay; remark: listed apart in the source
rat TIMP-1 [12] = biological target: T1, rat TIMP-1; assay: SPR (BIAcore), rat TIMP-1 on chip, IgG1, bivalent (avidity)
Experimental: as §1
Affinity matured clone MS-BW-17-1 was then converted from a monovalent Fab fragment to a bivalent IgG₁. Protein was produced by stable transfection. Purified protein was subjected to quality control in BIAcore™ and rat TIMP-1/rat MMP-13 assays (FIG. 13).

human TIMP-1 [13] = biological target: T2, human TIMP-1; assay: cell-based or functional assay; remark: listed apart in the source
human TIMP-1 [14] = biological target: T2, human TIMP-1; assay: SPR (BIAcore), TIMP-1 coupled to chip, monovalent Fab; remark: listed apart in the source
Experimental: as §1

human TIMP-1 [15] = biological target: T2, human TIMP-1; assay: cell-based or functional assay; remark: listed apart in the source
human TIMP-1 [16] = biological target: T2, human TIMP-1; assay: cell-based or functional assay; remark: listed apart in the source
human TIMP-1 [17] = biological target: T2, human TIMP-1; assay: cell-based or functional assay; remark: listed apart in the source
human TIMP-1 [18] = biological target: T2, human TIMP-1; assay: SPR (BIAcore); against the parental Fab (MS-BW-3, 13 nM; not given)
Experimental: as §1

human TIMP-1 [19] = biological target: T2, human TIMP-1; assay: SPR (BIAcore), TIMP-1 coupled to chip, monovalent Fab; remark: listed apart in the source
Experimental: as §1

human TIMP-1 [20] = biological target: T2, human TIMP-1; assay: as above; remark: listed apart in the source
Experimental: as §1

human TIMP-1 [21] = biological target: T2, human TIMP-1; assay: cell-based or functional assay; remark: listed apart in the source
human TIMP-1 [22] = biological target: T2, human TIMP-1; assay: SPR (BIAcore); against the parental Fab (MS-BW-44-2, 0.5 nM; implied)
Experimental: as §1

T1 sequence (P30120 24-217 limits assumed): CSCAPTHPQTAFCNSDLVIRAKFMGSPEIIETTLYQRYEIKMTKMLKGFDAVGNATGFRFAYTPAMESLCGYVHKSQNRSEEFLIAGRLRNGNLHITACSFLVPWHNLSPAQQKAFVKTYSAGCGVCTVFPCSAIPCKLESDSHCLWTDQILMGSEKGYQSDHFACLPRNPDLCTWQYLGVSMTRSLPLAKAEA

B1: MS-BW-14 (Fab, V domains shown)
VH: QVQLVQSGAEVKKPGSSVKVSCKASGGTFSSYAISWVRQAPGQGLEWMGGIIPIFGTANYAQKFQGRVTITADESTSTAYMELSSLRSEDTAVYYCARWSDQSYHYYWHPYFDVWGQGTLVTVSS
VL: DIVLTQPPSVSGAPGQRVTISCSGSSSNIGSNYVSWYQQLPGTAPKLLIYDNNQRPSGVPDRFSGSKSGTSASLAITGLQSEDEADYYCQSWDLEPYVFGGGTKLTVLG
notes: Fab, FLAG + Strep-tag II; not tied by name; also called MS-BW-14 Fab
Rat TIMP-1 [1]
  Kd: 10 nM
Rat TIMP-1 [2]
  IC50 in rat protease assay: 14 nM
Rat TIMP-1 [3]
  IC50 in rat protease assay: 14 nM
Rat TIMP-1 [4]
  IC50 (50 % reversal of the inhibition of rat MMP-13 by rat TIMP-1, fluorogenic peptide substrate assay): ~11 nM
Rat TIMP-1 [5]
  Kd: 10 nM
Rat TIMP-1 [6]
  Kd: 13 nM

B2: MS-BW-21 (Fab, V domains shown)
VH: QVQLVQSGAEVKKPGSSVKVSCKASGGTFSSYAISWVRQAPGQGLEWMGGIIPIFGTANYAQKFQGRVTITADESTSTAYMELSSLRSEDTAVYYCARYIGYTNVMDIRPGFYLDYWGQGTLVTVSS
VL: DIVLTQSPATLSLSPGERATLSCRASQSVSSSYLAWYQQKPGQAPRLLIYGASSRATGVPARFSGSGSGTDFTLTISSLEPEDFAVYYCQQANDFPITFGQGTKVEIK
Rat TIMP-1 [1]
  Kd: 36 nM
Human TIMP-1 [7]
  Kd: 520 nM
Rat TIMP-1 [2]
  IC50 in rat protease assay: 67 nM
Rat TIMP-1 [8]
  IC50 in rat protease assay: 67 nM
Human TIMP-1 [9]
  IC50 in human protease assay: > 300 nM
Rat TIMP-1 [5]
  Kd: 36 nM

B3: MS-BW-39 (Fab, V domains shown)
VH: QVQLVQSGAEVKKPGSSVKVSCKASGGTFSSYAISWVRQAPGQGLEWMGGIIPIFGTANYAQKFQGRVTITADESTSTAYMELSSLRSEDTAVYYCARGYIPYHLFDYWGQGTLVTVSS
VL: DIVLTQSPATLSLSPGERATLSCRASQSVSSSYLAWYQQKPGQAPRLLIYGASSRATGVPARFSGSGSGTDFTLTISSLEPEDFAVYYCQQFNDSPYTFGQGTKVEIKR
notes: Fab, FLAG + Strep-tag II; not tied by name
Rat TIMP-1 [1]
  Kd: ~108 nM
Rat TIMP-1 [2]
  IC50 in rat protease assay: > 100 nM
Rat TIMP-1 [8]
  IC50 in rat protease assay: > 100 nM
Rat TIMP-1 [5]
  Kd: ~108 nM

B4: MS-BW-3 IgG1 (antibody, V domains shown)
VH: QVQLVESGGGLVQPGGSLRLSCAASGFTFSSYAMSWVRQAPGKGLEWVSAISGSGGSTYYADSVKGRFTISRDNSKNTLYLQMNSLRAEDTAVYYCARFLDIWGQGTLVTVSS
VL: DIALTQPASVSGSPGQSITISCTGTSSDVGGYNYVSWYQQHPGKAPKLMIYDVSNRPSGVSNRFSGSKSGNTASLTISGLQAEDEADYYCQSYDFLRFSVFGGGTKLTVL
notes: Variable regions of Fab MS-BW-3 cloned into human IgG1 vectors; also called negative control IgG1 MS-BW-3; control antibody; copies: 2 + 2
Human TIMP-1 [10]
  Kd: ~0.4 nM

B5: MS-BW-17-1 (Fab, V domains shown)
VH: QVQLVQSGAEVKKPGESLKISCKGSGYSFTSYWIGWVRQMPGKGLEWMGIIYPGDSDTRYSPSFQGQVTISADKSISTAYLQWSSLKASDTAMYYCARLTNYFDSIYYDHWGQGTLVTVSS
VL: DIALTQPASVSGSPGQSITISCTGTSSDVGGYNYVSWYQQHPGKAPKLMIYDVSNRPSGVSNRFSGSKSGNTASLTISGLQAEDEADYYCQAFDVAPNGKVFGGGTKLTVLG
notes: Fab from LCDR3 optimization of MS-BW-17; also called MS-BW-17-1 Fab; BW-17-1 Fab
Rat TIMP-1 [1]
  Kd: 0.8 nM
Rat TIMP-1 [11]
  IC50 (50 % reversal of the inhibition of rat MMP-13 by rat TIMP-1, fluorogenic peptide substrate assay): ~1.3 nM
Rat TIMP-1 [3]
  IC50 in rat protease assay: 1.6 nM

B6: MS-BW-17-1 IgG1 (antibody, V domains shown)
VH: B5 VH
VL: DIALTQPASVSGSPGQSITISCTGTSSDVGGYNYVSWYQQHPGKAPKLMIYDVSNRPSGVSNRFSGSKSGNTASLTISGLQAEDEADYYCQAFDVAPNGKVFGGGTKLTVL
notes: Fab MS-BW-17-1 converted to bivalent human IgG1
Rat TIMP-1 [11]
  IC50 (50 % reversal of the inhibition of rat MMP-13 by rat TIMP-1, fluorogenic peptide substrate assay): ~0.9 nM
Rat TIMP-1 [12]
  Kd: 0.04 nM

B7: MS-BW-25 (Fab, V domains shown)
VH: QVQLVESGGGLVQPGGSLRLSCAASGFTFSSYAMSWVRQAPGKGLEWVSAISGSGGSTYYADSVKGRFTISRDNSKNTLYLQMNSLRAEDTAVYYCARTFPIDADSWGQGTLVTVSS
VL: DIALTQPASVSGSPGQSITISCTGTSSDVGGYNYVSWYQQHPGKAPKLMIYDVSNRPSGVSNRFSGSKSGNTASLTISGLQAEDEADYYCQSYDFINVIVFGGGTKLTVLG
notes: as for B3
Rat TIMP-1 [1]
  Kd: 4520 nM
Human TIMP-1 [7]
  Kd: 25 nM
Human TIMP-1 [13]
  IC50 in human protease assay: 115 nM
Rat TIMP-1 [8]
  IC50 in rat protease assay: > 300 nM
Human TIMP-1 [9]
  IC50 in human protease assay: 115 nM
Human TIMP-1 [14]
  Kd: 25 nM

B8: MS-BW-27 (Fab, V domains shown)
VH: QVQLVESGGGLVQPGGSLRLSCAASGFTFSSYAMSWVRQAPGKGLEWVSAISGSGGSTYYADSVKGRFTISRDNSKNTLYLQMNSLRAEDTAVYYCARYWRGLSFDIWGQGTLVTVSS
VL: B7 VL with I96Y, N97K, V98F, I99N
notes: as for B3
Human TIMP-1 [7]
  Kd: ~74 nM
Human TIMP-1 [14]
  Kd: ~74 nM

B9: MS-BW-44 (Fab, V domains shown)
VH: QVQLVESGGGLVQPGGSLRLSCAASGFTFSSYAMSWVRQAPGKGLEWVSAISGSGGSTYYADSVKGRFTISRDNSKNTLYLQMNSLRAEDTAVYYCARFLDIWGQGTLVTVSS
VL: B7 VL with I96V, N97R, V98F, I99M
notes: Fab: heavy chain of MS-BW-3 with light chain of MS-BW-26; not tied by name
Human TIMP-1 [15]
  IC50 in human protease assay: 4 nM
Human TIMP-1 [7]
  Kd: 2 nM
Human TIMP-1 [16]
  IC50 in human protease assay: 4 nM
  IC50 in human protease assay (modified, decreased amounts of TIMP-1 and MMP-1): 2 nM
Human TIMP-1 [17]
  IC50 in human protease assay (modified, 0.4 nM TIMP-1 and MMP-1): 2 nM
Human TIMP-1 [18]
  improvement factor (Kd): 6.5 fold
Human TIMP-1 [19]
  Kd: 2 nM
Human TIMP-1 [20]
  Kd: 2 nM

B10: MS-BW-26 (Fab, V domains shown)
VH: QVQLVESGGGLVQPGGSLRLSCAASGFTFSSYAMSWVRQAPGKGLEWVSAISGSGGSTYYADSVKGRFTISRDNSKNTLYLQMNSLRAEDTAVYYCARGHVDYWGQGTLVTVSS
VL: B7 VL with I96V, N97R, V98F, I99M
notes: as for B3
Human TIMP-1 [14]
  Kd: ~100 nM

B11: MS-BW-44-2-16 (Fab, V domains shown)
VH: QVQLVESGGGLVQPGGSLRLSCAASGFTFSSYAMSWVRQAPGKGLEWVSGISGNGVLIFYADSVKGRFTISRDNSKNTLYLQMNSLRAEDTAVYYCARWFDVWGQGTLVTVSS
VL: B7 VL with I96V, N97R, V98F, I99M
notes: Fab
Human TIMP-1 [16]
  IC50 in human protease assay (modified, decreased TIMP-1 and MMP-1): 0.3 nM
Human TIMP-1 [19]
  Kd: 0.5 nM

B12: MS-BW-44-6 (Fab, V domains shown)
VH: B11 VH with S30N, G50V, V56S, L57N, I58T, F59Y, W99F, F100L, V102I
VL: B7 VL with I96V, N97R, V98F, I99M
notes: Fab; MS-BW-44 with modified HCDR1 and HCDR2 cassettes
Human TIMP-1 [16]
  IC50 in human protease assay (modified, decreased TIMP-1 and MMP-1): 0.2 nM
Human TIMP-1 [17]
  IC50 in human protease assay (modified, 0.4 nM TIMP-1 and MMP-1): 0.2 nM
Human TIMP-1 [19]
  Kd: 0.6 nM
Human TIMP-1 [20]
  Kd: 0.6 nM

B13: MS-BW-2 (Fab, V domains shown)
VH: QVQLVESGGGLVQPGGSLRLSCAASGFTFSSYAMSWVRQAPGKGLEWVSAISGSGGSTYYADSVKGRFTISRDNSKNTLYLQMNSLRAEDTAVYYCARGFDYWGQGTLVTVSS
VL: B7 VL with I96K, N97T, V98Y, I99L
notes: as for B3
Human TIMP-1 [13]
  IC50 in human protease assay: > 100 nM
Human TIMP-1 [14]
  Kd: 180 nM

B14: MS-BW-38 (Fab, V domains shown)
VH: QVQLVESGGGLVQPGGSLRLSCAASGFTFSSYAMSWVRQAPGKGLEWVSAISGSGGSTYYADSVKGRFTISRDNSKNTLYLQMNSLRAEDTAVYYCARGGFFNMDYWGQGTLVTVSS
VL: B7 VL with I96T, N97Y, V98G, I99S
notes: as for B3
Rat TIMP-1 [1]
  Kd: ~353 nM
Human TIMP-1 [7]
  Kd: ~3 nM
Rat TIMP-1 [2]
  IC50 in rat protease assay: > 300 nM
Rat TIMP-1 [8]
  IC50 in rat protease assay: > 300 nM
Human TIMP-1 [9]
  IC50 in human protease assay: ~11 nM
Rat TIMP-1 [5]
  Kd: ~353 nM

B15: MS-BW-1 (Fab, V domains shown)
VH: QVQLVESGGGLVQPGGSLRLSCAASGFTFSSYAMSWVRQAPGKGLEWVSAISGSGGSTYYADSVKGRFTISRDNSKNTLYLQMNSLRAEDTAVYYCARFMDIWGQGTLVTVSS
VL: B7 VL with F95Y, I96Q, N97Q, V98F, I99T
notes: as for B3
Human TIMP-1 [13]
  IC50 in human protease assay: > 100 nM
Human TIMP-1 [14]
  Kd: 65 nM

B16: MS-BW-44-2-4 (Fab, V domains shown)
VH: QVQLVESGGGLVQPGGSLRLSCAASGFTFSSYAMSWVRQAPGKGLEWVSGISGNGVLIFYADSVKGRFTISRDNSKNTLYLQMNSLRAEDTAVYYCARGLMDYWGQGTLVTVSS
VL: B7 VL with I96V, N97R, V98F, I99M
notes: Fab from HCDR3 optimization of MS-BW-44-2
Human TIMP-1 [21]
  improvement factor with respect to the IC50 in human TIMP-1/MMP-1 assay (against the Fab of the previous maturation cycle, MS-BW-44-2): 2 fold
Human TIMP-1 [16]
  IC50 in human protease assay (modified, decreased TIMP-1 and MMP-1): 0.2 nM
Human TIMP-1 [22]
  improvement factor (affinity): 2.5 fold
Human TIMP-1 [19]
  Kd: 0.2 nM

B17: MS-BW-28 (Fab, V domains shown)
VH: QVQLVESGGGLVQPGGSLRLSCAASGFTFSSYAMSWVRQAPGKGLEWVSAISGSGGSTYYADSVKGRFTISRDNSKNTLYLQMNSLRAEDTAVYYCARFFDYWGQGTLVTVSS
VL: B7 VL with I96R, N97R, V98F, I99S
notes: as for B3
Human TIMP-1 [13]
  IC50 in human protease assay: 22 nM
Human TIMP-1 [14]
  Kd: 10 nM

B18: MS-BW-44-2 (Fab, V domains shown)
VH: B11 VH with W99F, F100L, V102I
VL: B7 VL with I96V, N97R, V98F, I99M
notes: Fab; MS-BW-44 with a modified HCDR2 cassette
Human TIMP-1 [16]
  IC50 in human protease assay (modified, decreased TIMP-1 and MMP-1): 0.4 nM
Human TIMP-1 [17]
  IC50 in human protease assay (modified, 0.4 nM TIMP-1 and MMP-1): 0.4 nM
Human TIMP-1 [19]
  Kd: 0.5 nM
Human TIMP-1 [20]
  Kd: 0.5 nM
